This assay deals with T1, mouse TMEM16A(ac) isoform (mouse), Q8BHY3.
T1 chain: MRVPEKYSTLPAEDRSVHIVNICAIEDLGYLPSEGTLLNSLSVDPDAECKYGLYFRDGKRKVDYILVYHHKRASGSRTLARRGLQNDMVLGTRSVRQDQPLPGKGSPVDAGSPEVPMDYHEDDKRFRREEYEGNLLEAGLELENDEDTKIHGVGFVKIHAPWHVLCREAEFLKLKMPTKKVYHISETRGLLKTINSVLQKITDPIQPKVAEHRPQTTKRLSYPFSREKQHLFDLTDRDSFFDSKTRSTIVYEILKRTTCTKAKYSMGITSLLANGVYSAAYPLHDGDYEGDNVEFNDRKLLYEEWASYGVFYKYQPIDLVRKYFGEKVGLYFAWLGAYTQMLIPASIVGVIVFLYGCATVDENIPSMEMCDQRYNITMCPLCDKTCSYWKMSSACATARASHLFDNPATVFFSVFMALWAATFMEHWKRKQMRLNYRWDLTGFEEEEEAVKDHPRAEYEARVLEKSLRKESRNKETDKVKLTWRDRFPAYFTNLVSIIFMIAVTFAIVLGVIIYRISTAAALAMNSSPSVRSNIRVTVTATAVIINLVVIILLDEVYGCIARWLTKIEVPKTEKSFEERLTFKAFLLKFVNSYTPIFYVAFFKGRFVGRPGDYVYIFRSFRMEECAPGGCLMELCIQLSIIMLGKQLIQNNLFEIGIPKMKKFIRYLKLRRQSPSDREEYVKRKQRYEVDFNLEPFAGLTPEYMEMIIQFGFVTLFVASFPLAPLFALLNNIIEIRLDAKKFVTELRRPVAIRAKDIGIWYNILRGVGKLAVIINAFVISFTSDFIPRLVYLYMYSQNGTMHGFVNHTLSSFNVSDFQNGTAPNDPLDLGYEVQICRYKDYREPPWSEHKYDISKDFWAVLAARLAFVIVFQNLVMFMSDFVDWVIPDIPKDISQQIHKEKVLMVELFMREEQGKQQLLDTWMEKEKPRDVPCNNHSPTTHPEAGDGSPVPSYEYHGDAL
Description: cryo-EM structure; purified mTMEM16A at 3 mg/ml in 0.12% digitonin, 20 mM HEPES pH 7.5, 150 mM NaCl, 0.5 mM CaCl2; single particle reconstruction with C2 symmetry imposed, 6.6 Å; poly-alanine model. The conditions noted are these: remark: other sources report otherwise.

B1: mouse TMEM16A(ac) isoform, Q8BHY3 1-960 (natural protein)
chain: T1 chain
For the molecule B1, the stoichiometry N – broadly, a count of units in the complex or per binding partner – was found to be 2.

Source of the values: publication PMC5470873.
